In publication PMC7045587:
Entries after “also recorded” stand apart in the source; their conditions may differ.

Key:
Conditions in all cases: control: wild type
[1] = protein yield after purification from P. pastoris
[2] = thermal inactivation half-life at 80 °C
activity across pH 3-9 = assay: activity across pH 3-9
[3] = thermal inactivation half-life at 90 °C
activity at 30-90 °C = assay: activity at 30-90 °C
[4] = residual activity after 200 min at 30-90 °C
[5] = DNS reducing-sugar assay, 60 °C
[6] = Michaelis-Menten kinetics, 60 °C, pH 4

Row | Protein | expression_or_secretion ([1]; glycan gained) | stability_or_folding, half_life ([2]; glycan gained) | other: optimal pH of activity (activity across pH 3-9; glycan gained) | stability_or_folding, half_life ([3]; glycan gained) | other: optimal temperature of activity (activity at 30-90 °C; glycan gained) | stability_or_folding ([4]; glycan gained) | enzymatic_activity, other: specific activity ([5]; glycan gained) | enzymatic_activity, kcat_Km ([6]; glycan gained) | expression_or_secretion ([1]; glycan lost) | stability_or_folding, half_life ([2]; glycan lost) | other: optimal pH of activity (activity across pH 3-9; glycan lost) | stability_or_folding, half_life ([3]; glycan lost) | other: optimal temperature of activity (activity at 30-90 °C; glycan lost) | stability_or_folding ([4]; glycan lost) | enzymatic_activity, other: specific activity ([5]; glycan lost) | enzymatic_activity, kcat_Km ([6]; glycan lost)
1 | CTendo45: L47T (protein) parent chain: MHLSQLALPLLLAAGAHAQGAQGTGRTTRYWDCCKPSCAWPGKSNALQPVQTCNAQDQPLNDGGNTRSGCDSGGSAFMCSNQSPWALNETLSYGWAAVRIAGQSEFNWCCACYELTFTSGPVAGKKMIVQATNTGGDLGSNHFDIAIPGGGVGIFNACTQQYGAPPNGWGERYGGIRSRSECDSFPEALKAGCYWRFDWFLGADNPDVSFKQVACPAAITAKSKCVRQRDVIDQTPTGPEIVPTWTP | no change | increases, 230 vs 150; also recorded: increases, 210 vs 130 | no change | increases, 55 vs 35; also recorded: increases, 45 vs 28 | no change | increases | increases, 1.36 ± 0.06 vs 1.21 ± 0.08; also recorded: increases, 2.17 ± 0.08 vs 2.07 ± 0.14 | increases, 74.65 ± 1.36 vs 62.06 ± 1.25; also recorded: increases, 192.43 ± 1.85 vs 138.46 ± 2.07 |  |  |  |  |  |  |  | 
2 | CTendo45: G63T (protein) parent chain: MHLSQLALPLLLAAGAHAQGAQGTGRTTRYWDCCKPSCAWPGKSNALQPVQTCNAQDQPLNDGGNTRSGCDSGGSAFMCSNQSPWALNETLSYGWAAVRIAGQSEFNWCCACYELTFTSGPVAGKKMIVQATNTGGDLGSNHFDIAIPGGGVGIFNACTQQYGAPPNGWGERYGGIRSRSECDSFPEALKAGCYWRFDWFLGADNPDVSFKQVACPAAITAKSKCVRQRDVIDQTPTGPEIVPTWTP | no change | decreases, 130 vs 150; also recorded: decreases, 110 vs 130 | no change | decreases, 25 vs 35; also recorded: decreases, 20 vs 28 | no change | decreases | decreases, 0.91 ± 0.08 vs 1.21 ± 0.08; also recorded: decreases, 1.71 ± 0.11 vs 2.07 ± 0.14 |  |  |  |  |  |  |  |  | 
3 | CTendo45: R67S (protein) parent chain: MHLSQLALPLLLAAGAHAQGAQGTGRTTRYWDCCKPSCAWPGKSNALQPVQTCNAQDQPLNDGGNTRSGCDSGGSAFMCSNQSPWALNETLSYGWAAVRIAGQSEFNWCCACYELTFTSGPVAGKKMIVQATNTGGDLGSNHFDIAIPGGGVGIFNACTQQYGAPPNGWGERYGGIRSRSECDSFPEALKAGCYWRFDWFLGADNPDVSFKQVACPAAITAKSKCVRQRDVIDQTPTGPEIVPTWTP | no change | increases, 190 vs 150; also recorded: increases, 160 vs 130 | no change | increases, 45 vs 35; also recorded: increases, 35 vs 28 | no change | increases | increases, 1.58 ± 0.12 vs 1.21 ± 0.08; also recorded: increases, 2.62 ± 0.13 vs 2.07 ± 0.14 | increases, 83.49 ± 1.25 vs 62.06 ± 1.25; also recorded: increases, 198.76 ± 2.17 vs 138.46 ± 2.07 |  |  |  |  |  |  |  | 
4 | CTendo45: W169S (protein) parent chain: MHLSQLALPLLLAAGAHAQGAQGTGRTTRYWDCCKPSCAWPGKSNALQPVQTCNAQDQPLNDGGNTRSGCDSGGSAFMCSNQSPWALNETLSYGWAAVRIAGQSEFNWCCACYELTFTSGPVAGKKMIVQATNTGGDLGSNHFDIAIPGGGVGIFNACTQQYGAPPNGWGERYGGIRSRSECDSFPEALKAGCYWRFDWFLGADNPDVSFKQVACPAAITAKSKCVRQRDVIDQTPTGPEIVPTWTP | no change |  | no change |  | no change |  |  |  |  |  |  |  |  |  |  | 
5 | CTendo45: Q56T (protein) parent chain: MHLSQLALPLLLAAGAHAQGAQGTGRTTRYWDCCKPSCAWPGKSNALQPVQTCNAQDQPLNDGGNTRSGCDSGGSAFMCSNQSPWALNETLSYGWAAVRIAGQSEFNWCCACYELTFTSGPVAGKKMIVQATNTGGDLGSNHFDIAIPGGGVGIFNACTQQYGAPPNGWGERYGGIRSRSECDSFPEALKAGCYWRFDWFLGADNPDVSFKQVACPAAITAKSKCVRQRDVIDQTPTGPEIVPTWTP | no change | decreases, 110 vs 150; also recorded: decreases, 100 vs 130 | no change | decreases, 20 vs 35; also recorded: decreases, 15 vs 28 | no change | decreases | increases, 1.28 ± 0.10 vs 1.21 ± 0.08; also recorded: no change, 2.09 ± 0.15 vs 2.07 ± 0.14 | increases, 70.67 ± 1.74 vs 62.06 ± 1.25; also recorded: increases, 177.29 ± 1.47 vs 138.46 ± 2.07 |  |  |  |  |  |  |  | 
6 | CTendo45: F143T (protein) parent chain: MHLSQLALPLLLAAGAHAQGAQGTGRTTRYWDCCKPSCAWPGKSNALQPVQTCNAQDQPLNDGGNTRSGCDSGGSAFMCSNQSPWALNETLSYGWAAVRIAGQSEFNWCCACYELTFTSGPVAGKKMIVQATNTGGDLGSNHFDIAIPGGGVGIFNACTQQYGAPPNGWGERYGGIRSRSECDSFPEALKAGCYWRFDWFLGADNPDVSFKQVACPAAITAKSKCVRQRDVIDQTPTGPEIVPTWTP | no change |  | no change |  | no change |  |  |  |  |  |  |  |  |  |  | 
7 | CTendo45: F143S (protein) parent chain: MHLSQLALPLLLAAGAHAQGAQGTGRTTRYWDCCKPSCAWPGKSNALQPVQTCNAQDQPLNDGGNTRSGCDSGGSAFMCSNQSPWALNETLSYGWAAVRIAGQSEFNWCCACYELTFTSGPVAGKKMIVQATNTGGDLGSNHFDIAIPGGGVGIFNACTQQYGAPPNGWGERYGGIRSRSECDSFPEALKAGCYWRFDWFLGADNPDVSFKQVACPAAITAKSKCVRQRDVIDQTPTGPEIVPTWTP | no change |  | no change |  | no change |  |  |  |  |  |  |  |  |  |  | 
8 | CTendo45: T90A (protein) parent chain: MHLSQLALPLLLAAGAHAQGAQGTGRTTRYWDCCKPSCAWPGKSNALQPVQTCNAQDQPLNDGGNTRSGCDSGGSAFMCSNQSPWALNETLSYGWAAVRIAGQSEFNWCCACYELTFTSGPVAGKKMIVQATNTGGDLGSNHFDIAIPGGGVGIFNACTQQYGAPPNGWGERYGGIRSRSECDSFPEALKAGCYWRFDWFLGADNPDVSFKQVACPAAITAKSKCVRQRDVIDQTPTGPEIVPTWTP |  |  |  |  |  |  |  |  | no change | increases, 260 vs 150; also recorded: increases, 230 vs 130 | no change | increases, 65 vs 35; also recorded: increases, 50 vs 28 | no change | increases | increases, 2.24 ± 0.18 vs 1.21 ± 0.08; also recorded: increases, 3.39 ± 0.21 vs 2.07 ± 0.14 | increases, 97.54 ± 2.13 vs 62.06 ± 1.25; also recorded: increases, 217.90 ± 2.83 vs 138.46 ± 2.07
